In US20220169722A1 (WUXI BIOLOGICS IRELAND, published 2022) one finds Bmax, Kd and IC50 data, which are given here for one molecule.

In experiment [1] the target is T1, human LAG-3 on transfected cells (human, UniProt P18627 23-525).
T1 construct: whole, on cells; Flp-In-293 or CHO-K1 cells transfected with full length human LAG-3; also called cell surface human LAG-3
T1 sequence (looked up): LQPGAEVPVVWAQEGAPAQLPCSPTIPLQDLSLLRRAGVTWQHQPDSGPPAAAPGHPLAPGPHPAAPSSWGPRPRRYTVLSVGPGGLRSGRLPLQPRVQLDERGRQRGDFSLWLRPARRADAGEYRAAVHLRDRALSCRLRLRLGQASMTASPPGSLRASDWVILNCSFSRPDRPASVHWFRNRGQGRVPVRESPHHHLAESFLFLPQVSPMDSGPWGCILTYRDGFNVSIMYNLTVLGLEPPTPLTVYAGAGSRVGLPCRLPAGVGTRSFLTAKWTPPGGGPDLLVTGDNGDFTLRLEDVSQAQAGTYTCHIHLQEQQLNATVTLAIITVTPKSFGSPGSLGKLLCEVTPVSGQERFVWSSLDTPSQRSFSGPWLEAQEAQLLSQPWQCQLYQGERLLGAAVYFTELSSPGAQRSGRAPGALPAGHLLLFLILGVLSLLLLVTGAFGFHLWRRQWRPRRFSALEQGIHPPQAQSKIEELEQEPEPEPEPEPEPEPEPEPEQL
The experiment can be described thus: FACS affinity on transfected cells.

The target in experiment [2] is T2, cynomolgus LAG-3 on transfected cells (cynomolgus monkey).
T2 construct: whole, on cells; 293F cells transfected with cynomolgus LAG-3; also called cell surface cynomolgus LAG-3; monkey LAG-3
The experiment can be described thus: FACS affinity on transfected cells.

Experiment [3] deals with T3, mouse Fc (mFc)-tagged human LAG-3 (human, UniProt P18627 23-450).
T3 construct: extracellular domain
T3 sequence (looked up): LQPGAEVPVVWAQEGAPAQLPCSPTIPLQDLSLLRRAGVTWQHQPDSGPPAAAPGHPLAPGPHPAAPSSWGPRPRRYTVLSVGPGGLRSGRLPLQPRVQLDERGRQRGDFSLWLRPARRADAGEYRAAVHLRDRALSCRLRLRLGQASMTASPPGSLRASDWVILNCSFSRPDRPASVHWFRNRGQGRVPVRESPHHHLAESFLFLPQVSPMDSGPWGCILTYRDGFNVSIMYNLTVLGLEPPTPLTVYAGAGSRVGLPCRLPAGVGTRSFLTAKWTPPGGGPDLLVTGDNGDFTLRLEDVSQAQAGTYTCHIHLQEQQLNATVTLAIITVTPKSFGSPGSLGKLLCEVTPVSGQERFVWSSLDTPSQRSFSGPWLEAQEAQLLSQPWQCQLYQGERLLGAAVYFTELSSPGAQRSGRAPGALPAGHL
The experiment can be described thus: ELISA blocking: antibody pre-mixed with mFc-tagged human LAG-3, added to plates coated with human LSECtin (blocked ligand); detection goat anti-mouse IgG Fc-HRP. As for the experimental part: (§1) 96-well plates were coated with human LSECtin or Galectin-3 at 0.5 μg/ml overnight at 4° C., respectively. […] After blocking and washing, the mixture was transferred to the plates and incubated at room temperature for 1 h. The plates were then washed and subsequently incubated with the secondary antibody goat-anti Mouse IgG Fc-HRP for 1 h. After washing, TMB substrate was added and the color reaction was stopped by 2M HCl. The absorbance at 450 nm was read using a microplate reader.

The target of experiment [4] is T3, mouse Fc (mFc)-tagged human LAG-3. The experiment in a line: ELISA blocking: antibody pre-mixed with mFc-tagged human LAG-3, added to plates coated with human Galectin-3 (blocked ligand); detection goat anti-mouse IgG Fc-HRP. As to the method: as §1
(ELISA stands for enzyme-linked immunosorbent assay.)

For experiment [5] the target is unchanged. The experiment in a line: FACS blocking: antibody pre-mixed with mFc-tagged human LAG-3; blocked ligand: cell surface human MHC-II (paragraph 254 says 'on A20 cells' for this figure); the column head on the sheet reads 'EC50 (nM)', the text calls the value IC50. As for the experimental part:
The mixture was transferred into the 96-well plates seeded with Raji cells. Goat anti-mouse IgG Fc-PE antibody was used to detect the binding of LAG-3 protein to Raji cells. The mean fluorescence intensity (MFI) was evaluated by flow cytometry and analyzed by FlowJo.

B1: W3396-R2-1 (Fc fusion)
VHH: QVQLVESGGGVVQPGGSLRLSCAASGLTLSQYTMGWFRQAPGKERELVAAIHWTSSVTDYADSVYGRFTISRDDSKNTGYLQMNSLRAEDTAVYYCAATWYYTHRGSFDYWGQGTLVTVSS
Turning to B1, the Bmax in experiment [1] worked out at 54 pM; in experiment [2], 380 pM. In addition, the results for the dissociation constant (Kd) in experiment [1] and in experiment [2] were 0.46 nM and 6.3 nM, respectively. The half-inhibitory concentration (IC50) (commonly the concentration that gives 50% inhibition) worked out at 1.81 nM in experiment [3], 1.86 nM in experiment [4] and 1.78 nM in experiment [5].
